In US20260258452, “RNA-GUIDED NUCLEASES AND ACTIVE FRAGMENTS AND VARIANTS THEREOF AND METHODS OF USE” (Life Edit Therapeutics, Inc., published 2026):

Assays:
Assay in all cases: cell_activity; PAM SEQ ID 116
Conditions in all cases: tags: N-terminal SV40 NLS and 3xFLAG, C-terminal nucleoplasmin NLS
[1] = biological target: T1, APG01868 (Enterococcus sp.)
T1 chain: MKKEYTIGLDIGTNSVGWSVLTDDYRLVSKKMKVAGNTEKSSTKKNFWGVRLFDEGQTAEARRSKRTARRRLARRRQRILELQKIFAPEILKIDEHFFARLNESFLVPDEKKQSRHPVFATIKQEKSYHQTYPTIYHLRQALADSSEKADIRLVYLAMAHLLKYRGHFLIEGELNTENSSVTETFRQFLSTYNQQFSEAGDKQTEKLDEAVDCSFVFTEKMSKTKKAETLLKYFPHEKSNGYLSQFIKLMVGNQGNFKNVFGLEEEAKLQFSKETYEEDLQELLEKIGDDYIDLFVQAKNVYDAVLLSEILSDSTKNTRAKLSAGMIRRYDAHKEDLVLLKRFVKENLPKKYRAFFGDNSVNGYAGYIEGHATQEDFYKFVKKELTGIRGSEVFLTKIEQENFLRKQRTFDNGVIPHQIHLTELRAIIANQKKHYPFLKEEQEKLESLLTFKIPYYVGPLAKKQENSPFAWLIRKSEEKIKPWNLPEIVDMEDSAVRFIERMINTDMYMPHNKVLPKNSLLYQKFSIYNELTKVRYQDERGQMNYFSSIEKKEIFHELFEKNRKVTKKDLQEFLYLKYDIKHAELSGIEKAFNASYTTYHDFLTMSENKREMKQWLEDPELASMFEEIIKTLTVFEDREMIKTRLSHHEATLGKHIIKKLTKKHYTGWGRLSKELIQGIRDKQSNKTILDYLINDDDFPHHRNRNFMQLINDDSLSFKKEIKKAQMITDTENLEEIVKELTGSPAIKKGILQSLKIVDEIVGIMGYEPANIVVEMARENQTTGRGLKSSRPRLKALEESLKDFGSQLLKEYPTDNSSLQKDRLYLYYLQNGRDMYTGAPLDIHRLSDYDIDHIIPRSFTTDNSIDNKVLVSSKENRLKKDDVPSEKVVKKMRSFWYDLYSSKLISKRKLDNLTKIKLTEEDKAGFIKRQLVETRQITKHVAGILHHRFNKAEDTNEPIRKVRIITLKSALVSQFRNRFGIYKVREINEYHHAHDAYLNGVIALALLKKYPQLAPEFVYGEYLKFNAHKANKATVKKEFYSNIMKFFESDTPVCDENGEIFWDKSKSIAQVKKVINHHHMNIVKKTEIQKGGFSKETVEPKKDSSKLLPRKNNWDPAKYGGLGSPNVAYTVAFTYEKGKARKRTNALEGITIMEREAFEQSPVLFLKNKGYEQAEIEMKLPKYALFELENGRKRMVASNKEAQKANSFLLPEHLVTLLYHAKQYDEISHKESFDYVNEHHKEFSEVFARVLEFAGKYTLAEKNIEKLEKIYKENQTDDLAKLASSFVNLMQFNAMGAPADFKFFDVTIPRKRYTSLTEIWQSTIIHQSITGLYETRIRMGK
Protocol: (§1) Additionally, products from PCR #2 containing Illumina overhang sequences underwent library preparation following the Illumina 16S Metagenomic Sequencing Library protocol. Deep sequencing was performed on an Illumina Mi-Seq platform by a service provider (MOGene). Typically, 200,000 of 250 bp paired-end reads (2×100,000 reads) are generated per amplicon. […] Output alignments were hand-curated to confirm insertion and deletion sites as well as identify microhomology sites at the recombination sites. All experiments were performed in human cells. The “target sequence” is the targeted sequence within the gene target. For each target sequence, the guide RNA comprised the complementary RNA target sequence and the appropriate sgRNA depending on the RGN used.

[2] = biological target: T2, APG02998 (Enterococcus sp.)
T2 chain: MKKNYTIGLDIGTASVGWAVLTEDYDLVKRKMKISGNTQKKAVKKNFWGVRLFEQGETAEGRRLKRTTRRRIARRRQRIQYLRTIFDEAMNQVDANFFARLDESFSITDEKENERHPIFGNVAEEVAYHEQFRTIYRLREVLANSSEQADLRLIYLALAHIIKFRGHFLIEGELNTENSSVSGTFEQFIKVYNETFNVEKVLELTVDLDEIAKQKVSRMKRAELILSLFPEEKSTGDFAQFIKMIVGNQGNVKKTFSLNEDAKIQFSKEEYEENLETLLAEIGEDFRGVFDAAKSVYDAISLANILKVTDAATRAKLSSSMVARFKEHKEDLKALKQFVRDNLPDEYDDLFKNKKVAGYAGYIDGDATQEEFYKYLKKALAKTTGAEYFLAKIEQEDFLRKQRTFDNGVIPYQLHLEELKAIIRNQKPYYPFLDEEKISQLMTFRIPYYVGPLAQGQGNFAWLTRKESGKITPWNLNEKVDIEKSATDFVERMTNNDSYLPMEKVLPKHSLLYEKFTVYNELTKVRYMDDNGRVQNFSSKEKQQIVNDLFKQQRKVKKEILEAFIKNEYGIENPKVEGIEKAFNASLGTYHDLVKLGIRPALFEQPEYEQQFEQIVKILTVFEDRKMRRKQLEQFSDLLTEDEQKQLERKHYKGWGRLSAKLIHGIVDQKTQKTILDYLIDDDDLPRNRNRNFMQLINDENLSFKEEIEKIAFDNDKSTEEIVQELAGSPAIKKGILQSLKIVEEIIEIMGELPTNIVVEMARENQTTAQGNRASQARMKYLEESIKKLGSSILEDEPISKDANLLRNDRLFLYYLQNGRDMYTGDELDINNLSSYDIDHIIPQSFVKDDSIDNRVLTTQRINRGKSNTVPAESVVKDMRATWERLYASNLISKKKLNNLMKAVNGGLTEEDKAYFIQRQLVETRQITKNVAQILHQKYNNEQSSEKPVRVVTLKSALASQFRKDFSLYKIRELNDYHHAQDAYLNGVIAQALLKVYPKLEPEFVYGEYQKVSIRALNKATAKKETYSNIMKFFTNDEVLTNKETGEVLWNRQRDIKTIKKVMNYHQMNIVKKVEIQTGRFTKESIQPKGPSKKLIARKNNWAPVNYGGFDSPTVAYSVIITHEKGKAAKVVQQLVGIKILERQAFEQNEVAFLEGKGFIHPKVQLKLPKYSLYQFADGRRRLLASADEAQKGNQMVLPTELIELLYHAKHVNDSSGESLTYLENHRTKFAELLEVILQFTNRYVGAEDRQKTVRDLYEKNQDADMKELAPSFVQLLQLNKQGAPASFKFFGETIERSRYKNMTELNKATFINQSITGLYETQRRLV
Protocol: as §1

[3] = biological target: T3, APG07991 (Enterococcus sp.)
T3 chain: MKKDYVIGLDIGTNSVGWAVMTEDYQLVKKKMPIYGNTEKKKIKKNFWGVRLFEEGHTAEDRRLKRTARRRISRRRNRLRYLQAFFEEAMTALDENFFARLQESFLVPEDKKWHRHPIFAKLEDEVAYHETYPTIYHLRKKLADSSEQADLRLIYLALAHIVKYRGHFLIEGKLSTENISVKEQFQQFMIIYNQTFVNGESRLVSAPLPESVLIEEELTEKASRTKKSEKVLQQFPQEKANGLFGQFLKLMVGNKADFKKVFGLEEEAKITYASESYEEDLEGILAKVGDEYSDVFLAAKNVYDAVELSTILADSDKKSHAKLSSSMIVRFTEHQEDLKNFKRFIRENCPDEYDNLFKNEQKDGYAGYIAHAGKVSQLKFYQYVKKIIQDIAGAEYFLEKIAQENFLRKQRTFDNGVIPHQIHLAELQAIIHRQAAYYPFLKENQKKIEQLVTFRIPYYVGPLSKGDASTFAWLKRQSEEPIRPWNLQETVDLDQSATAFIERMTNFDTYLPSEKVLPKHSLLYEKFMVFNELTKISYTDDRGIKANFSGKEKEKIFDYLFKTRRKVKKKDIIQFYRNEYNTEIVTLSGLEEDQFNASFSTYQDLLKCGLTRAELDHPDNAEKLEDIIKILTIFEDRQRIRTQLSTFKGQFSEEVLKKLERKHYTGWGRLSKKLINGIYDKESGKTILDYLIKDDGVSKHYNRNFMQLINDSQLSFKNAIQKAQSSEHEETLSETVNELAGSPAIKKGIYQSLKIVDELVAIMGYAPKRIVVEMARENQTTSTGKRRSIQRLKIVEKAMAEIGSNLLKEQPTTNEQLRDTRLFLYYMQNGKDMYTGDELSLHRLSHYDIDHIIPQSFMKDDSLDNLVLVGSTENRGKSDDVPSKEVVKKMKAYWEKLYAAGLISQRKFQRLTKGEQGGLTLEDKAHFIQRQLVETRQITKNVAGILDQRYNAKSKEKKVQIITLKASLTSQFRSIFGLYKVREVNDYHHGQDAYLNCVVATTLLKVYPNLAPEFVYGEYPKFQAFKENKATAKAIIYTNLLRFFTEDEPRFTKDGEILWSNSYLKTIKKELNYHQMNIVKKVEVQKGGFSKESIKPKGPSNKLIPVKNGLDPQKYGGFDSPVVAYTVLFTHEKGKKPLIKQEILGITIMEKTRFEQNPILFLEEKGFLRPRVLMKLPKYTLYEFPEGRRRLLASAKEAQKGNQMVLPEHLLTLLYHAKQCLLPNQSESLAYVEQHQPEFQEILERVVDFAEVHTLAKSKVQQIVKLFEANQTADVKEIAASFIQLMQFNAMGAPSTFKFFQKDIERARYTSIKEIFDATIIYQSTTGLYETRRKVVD
Protocol: as §1

B1: SGN001317 ; RelA target SGN001317 (ssRNA ; dsDNA)
RNA: ACAGUGCGCAUCUCCCUGGUCACCAGUUUUAGAGCUAUGCAAAGGCAUAGCAAGUUAAAAUAAGGCUUUGUCCGUCAUCAGCUUUUUUAAAGCAGCGCUGUUCUCGGCGCUUUU
DNA 1: ACAGTGCGCATCTCCCTGGTCACCA
DNA 2: TGGTGACCAGGGAGATGCGCACTGT
- activity [1]: 19.4 % editing

B2: SGN001320 ; RelA target SGN001320 (ssRNA ; dsDNA)
RNA: ACAGUGCGCAUCUCCCUGGUCACCAGUUUUAGAGCUAUGCAAAGGCAUAGCAAGUUAAAAUAAGGCUUAGUCCGUAAACAAACUUUGGCACUGUAUUCGGUGCUUUUUUU
DNA 1: ACAGTGCGCATCTCCCTGGTCACCA
DNA 2: TGGTGACCAGGGAGATGCGCACTGT
- activity [2]: 3.48 % editing

B3: SGN001343 ; TRA target SGN001343 (ssRNA ; dsDNA)
RNA: UCUGUGGGACAAGAGGAUCAGUUUUAGAGCUAUGCAAAGGCAUAGCAAGUUAAAAUAAGGCUUUGUCCGUCAUCAGCUUUUUUAAAGCAGCGCUGUUCUCGGCGCUUUU
DNA 1: TCTGTGGGACAAGAGGATCA
DNA 2: TGATCCTCTTGTCCCACAGA
- activity [1]: 41.4 % editing

B4: SGN001346 ; TRA target SGN001346 (ssRNA ; dsDNA)
RNA: UCUGUGGGACAAGAGGAUCAGUUUUAGAGCUAUGCAAAGGCAUAGCAAGUUAAAAUAAGGCUUAGUCCGUAAACAAACUUUGGCACUGUAUUCGGUGCUUUUUUU
DNA 1: TCTGTGGGACAAGAGGATCA
DNA 2: TGATCCTCTTGTCCCACAGA
- activity [2]: 5.87 % editing

B5: SGN001357 ; HAO1 target SGN001357 (ssRNA ; dsDNA)
RNA: CAUUGAUACAAAUUAGCCGGGUUUUAGAGUCAUGUUGAAAGCAACAUAGCAAGUUAAAAUAAGGUUUUAACCGUAAUCAACUGUAAAGUGGCGCUGUUUCGGCGCUUUU
DNA 1: CATTGATACAAATTAGCCGG
DNA 2: CCGGCTAATTTGTATCAATG
- activity [3]: 13.3 % editing
